# US20240270857A1 (CHIA TAI TIANQING PHARMACEUTICAL GROUP, published 2024)
# Residue numbers refer to the chain shown, from its start.
# T1: human IL-36R overexpressed on 293T-hIL36R-NFκB cells (human, UniProt Q9HB29 20-575)
# T1 sequence: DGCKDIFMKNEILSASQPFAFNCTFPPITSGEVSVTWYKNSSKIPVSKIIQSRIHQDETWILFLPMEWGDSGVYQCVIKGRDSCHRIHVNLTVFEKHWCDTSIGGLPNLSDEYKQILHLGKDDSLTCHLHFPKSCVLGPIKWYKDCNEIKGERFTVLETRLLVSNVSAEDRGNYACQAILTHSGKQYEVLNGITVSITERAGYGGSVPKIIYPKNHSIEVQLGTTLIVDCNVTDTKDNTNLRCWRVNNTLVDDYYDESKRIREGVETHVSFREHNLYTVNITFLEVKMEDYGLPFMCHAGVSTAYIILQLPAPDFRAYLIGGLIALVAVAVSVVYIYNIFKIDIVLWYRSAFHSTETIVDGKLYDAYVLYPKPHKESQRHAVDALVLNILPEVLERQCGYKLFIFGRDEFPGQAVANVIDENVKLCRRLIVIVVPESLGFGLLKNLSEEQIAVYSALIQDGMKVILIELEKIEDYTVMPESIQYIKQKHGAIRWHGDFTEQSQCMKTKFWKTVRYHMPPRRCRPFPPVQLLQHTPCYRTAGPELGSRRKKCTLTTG
# T2: cynomolgus IL-36R overexpressed on 293T-CynoIL36R-NFκB cells (cynomolgus monkey)
# T2 construct: Entry includes the signal peptide; also called monkey IL-36R
# T2 chain: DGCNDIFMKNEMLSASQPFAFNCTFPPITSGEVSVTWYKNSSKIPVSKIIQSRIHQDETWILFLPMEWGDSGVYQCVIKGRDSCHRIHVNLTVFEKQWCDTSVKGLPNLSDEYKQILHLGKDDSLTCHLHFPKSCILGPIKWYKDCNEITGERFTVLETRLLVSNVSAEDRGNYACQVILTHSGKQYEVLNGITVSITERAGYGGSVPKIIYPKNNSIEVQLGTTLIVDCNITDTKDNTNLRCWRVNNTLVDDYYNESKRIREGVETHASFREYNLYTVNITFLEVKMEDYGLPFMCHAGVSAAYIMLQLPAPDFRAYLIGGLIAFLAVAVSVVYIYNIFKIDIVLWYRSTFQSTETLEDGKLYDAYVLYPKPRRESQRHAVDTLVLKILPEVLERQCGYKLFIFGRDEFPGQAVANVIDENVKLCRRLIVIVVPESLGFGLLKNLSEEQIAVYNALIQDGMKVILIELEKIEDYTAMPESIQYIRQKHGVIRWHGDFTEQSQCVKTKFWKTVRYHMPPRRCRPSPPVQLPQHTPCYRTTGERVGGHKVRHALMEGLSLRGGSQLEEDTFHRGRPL
# T3: IL-36R naturally expressed on OVCAR8 cells and on normal human epidermal keratinocytes (NHK cells) (human, UniProt Q9HB29 20-575)
# T3 sequence (looked up): T1 sequence
# B1: hz72C1-1.2 (antibody, human IgG4 S228P, kappa)
# heavy: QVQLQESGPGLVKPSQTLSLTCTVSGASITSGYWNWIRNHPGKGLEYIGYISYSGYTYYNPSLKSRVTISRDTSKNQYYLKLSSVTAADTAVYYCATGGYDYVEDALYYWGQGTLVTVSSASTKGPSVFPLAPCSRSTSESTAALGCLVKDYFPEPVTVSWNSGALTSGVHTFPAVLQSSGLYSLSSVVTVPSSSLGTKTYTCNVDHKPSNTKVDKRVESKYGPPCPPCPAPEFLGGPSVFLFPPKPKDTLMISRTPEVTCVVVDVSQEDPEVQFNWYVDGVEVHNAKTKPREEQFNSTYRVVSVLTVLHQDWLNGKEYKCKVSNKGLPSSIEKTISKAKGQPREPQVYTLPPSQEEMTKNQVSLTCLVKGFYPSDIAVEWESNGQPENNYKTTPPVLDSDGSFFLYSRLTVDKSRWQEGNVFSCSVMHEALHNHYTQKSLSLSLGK
# light: DIQMTQSPSSLSASVGDRVTITCRASSNVRYMYWYQQKPGKAPKLWIYLTSNLASGVPSRFSGSGSGTSYTLTISSLQPEDFATYYCQQFTTSPYTFGQGTKLEIKRTVAAPSVFIFPPSDEQLKSGTASVVCLLNNFYPREAKVQWKVDNALQSGNSQESVTEQDSKDSTYSLSSTLTLSKADYEKHKVYACEVTHQGLSSPVTKSFNRGEC
# notes: Humanized, human IgG4 / kappa
# B2: hz72C1-1.1 (antibody, human IgG4 S228P, kappa)
# heavy: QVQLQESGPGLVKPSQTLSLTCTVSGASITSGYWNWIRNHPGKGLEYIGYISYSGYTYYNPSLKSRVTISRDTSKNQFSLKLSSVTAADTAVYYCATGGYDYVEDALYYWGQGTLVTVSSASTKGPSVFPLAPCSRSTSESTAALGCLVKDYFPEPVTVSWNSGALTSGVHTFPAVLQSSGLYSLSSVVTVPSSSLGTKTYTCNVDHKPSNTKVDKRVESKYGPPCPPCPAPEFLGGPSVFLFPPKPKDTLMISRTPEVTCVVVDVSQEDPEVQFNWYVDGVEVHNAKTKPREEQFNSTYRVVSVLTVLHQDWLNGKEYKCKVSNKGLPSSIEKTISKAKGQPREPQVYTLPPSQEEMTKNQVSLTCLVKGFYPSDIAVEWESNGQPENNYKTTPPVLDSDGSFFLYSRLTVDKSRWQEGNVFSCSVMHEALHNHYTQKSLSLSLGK
# light: B1 light
# notes: Humanized, human IgG4 / kappa; also called humanized 72C1 antibody 1.1
# B3: hz72C1-2.1 (antibody, human IgG4 S228P, kappa)
# heavy: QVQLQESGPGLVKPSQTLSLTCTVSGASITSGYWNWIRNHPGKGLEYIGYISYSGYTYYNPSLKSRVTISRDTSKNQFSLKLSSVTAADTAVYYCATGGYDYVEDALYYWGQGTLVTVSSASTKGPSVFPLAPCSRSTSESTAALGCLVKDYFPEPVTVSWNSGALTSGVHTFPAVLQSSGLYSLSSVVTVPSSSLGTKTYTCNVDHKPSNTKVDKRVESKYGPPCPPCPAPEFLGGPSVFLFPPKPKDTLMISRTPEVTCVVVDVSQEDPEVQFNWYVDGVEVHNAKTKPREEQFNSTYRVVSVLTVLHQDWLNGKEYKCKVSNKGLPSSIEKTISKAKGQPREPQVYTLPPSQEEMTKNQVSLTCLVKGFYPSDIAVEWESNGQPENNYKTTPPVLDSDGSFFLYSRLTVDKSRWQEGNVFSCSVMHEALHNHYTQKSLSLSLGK
# light: B1 light with F90Y
# notes: Humanized, human IgG4 / kappa
# B4: hz72C1-1.3 (antibody, human IgG4 S228P, kappa)
# heavy: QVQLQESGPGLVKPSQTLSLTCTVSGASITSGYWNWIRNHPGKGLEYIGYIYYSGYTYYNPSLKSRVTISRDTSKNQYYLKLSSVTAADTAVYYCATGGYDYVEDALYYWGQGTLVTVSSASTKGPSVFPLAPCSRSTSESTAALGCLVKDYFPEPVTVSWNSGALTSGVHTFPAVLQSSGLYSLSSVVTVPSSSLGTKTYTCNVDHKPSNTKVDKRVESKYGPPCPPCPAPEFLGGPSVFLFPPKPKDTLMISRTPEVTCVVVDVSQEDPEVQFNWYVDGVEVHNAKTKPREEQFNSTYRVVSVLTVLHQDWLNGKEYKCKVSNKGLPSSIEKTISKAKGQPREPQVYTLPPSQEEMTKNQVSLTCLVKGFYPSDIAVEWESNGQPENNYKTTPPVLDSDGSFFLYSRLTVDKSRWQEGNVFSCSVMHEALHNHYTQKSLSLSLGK
# light: B1 light
# notes: Humanized, human IgG4 / kappa
# Tests used:
# [1] = biological target: T1, human IL-36R overexpressed on …; assay: cell-based or functional assay
# [2] = biological target: T2, cynomolgus IL-36R overexpressed on …; assay: FACS on 293T-CynoIL36R-NFκB cells, ratio of MFI to background MFI
# Procedure: After the cells was washed with PBS, the cells were resuspended with 100 μL of PBS and then the fluorescence signal was detected using a flow cytometer (BD, Accuri C6). […] The ratio was the ratio of mean fluorescence intensity (MFI) of the experimental group/the background MFI, and the resulting data were analyzed using GraphPad Prism.
# Affinity, binding and blocking assays for humanized antibodies hz72C1-1.1, hz72C1-1.2, hz72C1-1.3, hz72C1-2.1, hz72C1-2.2 and hz72C1-2.3 as well as hz84C4-1.1, hz84C4-1.2, hz84C4-1.3, hz84C4-1.4, hz84C4-1.5, hz84C4-2.1, hz84C4-2.2, hz84C4-2.3, hz84C4-2.4 and hz84C4-2.5 were performed according to the methods of Example 4, Example 5. Example 6, Example 7 and Example 8.
# [3] = biological target: T3, IL-36R naturally expressed on OVCAR8 …; assay: cell-based or functional assay
Binder,IC50 (M); hIL36α; NFκB-luciferase [1] [M],IC50 (M); hIL36αβγ; NFκB-luciferase [1] [M],IC50 (M); hIL36β; NFκB-luciferase [1] [M],IC50 (M); hIL36γ; NFκB-luciferase [1] [M],Maximum inhibition rate %; hIL36α; NFκB-luciferase [1] [%],Maximum inhibition rate %; hIL36αβγ; NFκB-luciferase [1] [%],Maximum inhibition rate %; hIL36β; NFκB-luciferase [1] [%],Maximum inhibition rate %; hIL36γ; NFκB-luciferase [1] [%],EC50 [2] [nM],IC50 (M); hIL36α; IL-8 production [3] [M],IC50 (M); hIL36αβγ; IL-8 production [3] [M],IC50 (M); hIL36β; IL-8 production [3] [M],IC50 (M); hIL36γ; IL-8 production [3] [M],Maximum inhibition rate %; hIL36α; IL-8 production [3] [%],Maximum inhibition rate %; hIL36αβγ; IL-8 production [3] [%],Maximum inhibition rate %; hIL36β; IL-8 production [3] [%],Maximum inhibition rate %; hIL36γ; IL-8 production [3] [%]
B1,1.04e-08,~4.15e-08,5.07e-09,2.18e-08,101,86.7,96.9,98.4,~4.94,6.21e-11,8.82e-11,2.61e-11,1.38e-11,98.9,97.9,98.2,98.2
B2,9.56e-09,5.27e-08,3.07e-09,2.82e-08,99.6,109,94.6,98.1,5.21,3.02e-11,9.17e-11,4.11e-11,2.59e-11,99,97.5,98.4,98.2
B3,9.83e-09,6.62e-08,5.08e-09,3.72e-08,87.9,70.5,92.3,85.4,5.58,1.43e-10,3.97e-10,9.9e-11,8.27e-11,98.6,96.4,98.3,97.8
B4,6.82e-09,4.03e-08,3.88e-09,1.88e-08,98.7,90.1,96.7,101,5.76,4.08e-11,8.4e-11,1.6e-11,2.42e-11,99,97.7,98.4,98.3
